Measured values reported in publication PMC12838526.

Molecular target: F-actin (polymerized rabbit skeletal muscle actin) (rabbit) (UniProt P68135)
Assay: co-sedimentation

Substance	percent co-sedimented with F-actin [%]	percent co-sedimented with F-actin, αcat ABD added [%]
Cno FAB peptide (residues 1967-2051), full-length form (domain or fragment)	55	76
GST-Cno H+C+FAB-His6 (Cno residues 1560-2051) (domain or fragment)	32	–
